Results reported in publication PMC5705219.

Target: PRDM9 chimera: human exons 1-9 joined to the final exon (ZF array, 18 zinc fingers) of the chimpanzee reference PRDM9 allele w11a, C-terminally tagged with HA or V5 (human | chimpanzee)
Assay: co-IP; direct competition: HEK293T transfected with three constructs, Human and Chimp prey with the same epitope tag and Human or Chimp bait with the complementary tag; IP against the bait tag, western against the prey tag; both directions of HA/V5 tagging

fold pull-down efficiency against Human PRDM9 prey on the same Chimp bait: > 2 fold
Substance: PRDM9 chimera: human exons 1-9 joined to the final exon (ZF array, 18 zinc fingers) of the chimpanzee reference PRDM9 allele w11a, C-terminally tagged with HA or V5
